Results taken from patent US20190169308A1 (ALLIGATOR BIOSCIENCE, published 2019).
Blank lines part the entries; values can stand above or below the binder they belong to.

Tests used:
[1] = biological target: T1, CD40-Fc (Ancell #504-820) (human, UniProt P25942 21-193); assay: ELISA, coated CD40-Fc
T1 construct: not shown: Fc part, bought reagent, not described
Method: (§1) ELISA plates (Greiner #655074) were coated with 50 μl/well of recombinant human OX40 (R&D #1493-CD), CD40-Fc (Ancell #504-820) or CD137 (R&D #838-4B) diluted to a final concentration of 0.5 μg/ml in PBS for 1h at 37° C. or overnight at 4° C. Plates were washed with PBS+0.05% TWEEN20 (PBST), followed by block with PBST+1% bovine serum albumin (BSA). Antibody samples were prepared as serial 1/10 dilutions from 10-0.01 μg/ml in PBST+1% BSA and incubated for 1 h in room temperature, followed by detection using a horse radish peroxidase-conjugated anti-human kappa light chain antibody (AbD Serotec #STAR127P) and developed using SuperSignal ELISA Pico Chemiluminescent substrate (Pierce ThermoScientific #37069).

[2] = biological target: T2, recombinant human OX40 (R&D #1493-CD) (human, UniProt P43489 29-216, limits assumed); assay: ELISA, coated OX40
T2 sequence (looked up): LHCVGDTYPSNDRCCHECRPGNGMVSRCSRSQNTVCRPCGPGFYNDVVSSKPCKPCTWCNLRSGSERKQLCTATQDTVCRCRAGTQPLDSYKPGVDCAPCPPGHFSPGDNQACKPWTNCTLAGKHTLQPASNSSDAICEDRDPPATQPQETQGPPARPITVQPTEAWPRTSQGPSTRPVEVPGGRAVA
Method: as §1

[3] = biological target: T3, recombinant human CD137-Fc (R&D #838-4B) (human, UniProt Q07011 24-186); assay: ELISA, coated CD137-Fc
T3 construct: bought; also called CD137 (R&D #838-4B); not shown: Fc part, bought reagent, not described
T3 sequence (Q07011 24-186 limits assumed): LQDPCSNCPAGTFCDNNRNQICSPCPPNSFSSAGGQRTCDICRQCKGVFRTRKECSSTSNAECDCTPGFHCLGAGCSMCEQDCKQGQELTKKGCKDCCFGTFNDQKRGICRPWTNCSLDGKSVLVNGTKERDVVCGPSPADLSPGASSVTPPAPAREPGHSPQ
Method: (§2) Binding of CD137 antibodies to recombinant human CD137 was determined by sandwich ELISA. Briefly, ELISA plates (Greiner #655074) coated with recombinant human CD137-Fc (R&D #838-4B) were incubated with serial dilutions of the various CD137 antibodies to be investigated. CD137 antibodies were detected using HRP-conjugated goat-anti-human kappa light chain (AbD Serotec #STAR127P) and developed with SuperSignal ELISA Pico Chemiluminescent substrate (Pierce #37069). EC50 values of the various antibodies were determined in 2-6 separate experiments.

[4] = biological target: T4, cynomolgus CD137 on transfected CHO cells (cynomolgus; human); assay: flow cytometry, CD137-transfected CHO cells
T4 construct: extracellular domain;domain: transmembrane and intracellular part; also called CHO-cyCD137; CHOcynoCD137
T4 sequence (P25942 other isoform, or with tags, fused parts or gaps): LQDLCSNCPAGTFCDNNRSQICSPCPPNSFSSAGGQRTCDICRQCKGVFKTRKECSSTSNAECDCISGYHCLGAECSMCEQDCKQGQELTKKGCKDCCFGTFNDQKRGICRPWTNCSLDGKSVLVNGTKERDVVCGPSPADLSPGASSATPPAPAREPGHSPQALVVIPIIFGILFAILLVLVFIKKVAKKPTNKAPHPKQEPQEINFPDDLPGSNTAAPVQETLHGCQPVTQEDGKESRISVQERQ
Method: (§3) Binding and EC50 was determined using flow cytometric analysis of CHO cells transfected with human CD137, cynomolgus CD137 or empty vector. The extracellular part of human or cynomolgus CD137 was fused to the transmembrane and intracellular part of human CD40 and cloned into pcDNA3.1. The vector was subsequently stably transfected into CHO cells. […] CD137-transfected and empty vector-transfected cells were incubated with CD137 antibodies for at least 1h at 4° C. to saturate the binding. In order to minimize antibody internalization, 0.05% sodium azide was used in the incubation buffer and all work was performed on ice. […] Directly after staining the cells were fixed with a paraformaldehyde solution (10x concentrate BD CellFIX, BD biosciences #340181). Cells were analyzed by flow cytometry using FACSVerse (BD Biosciences). The median fluorescence intensity (MFI) for each sample was determined and the dose response data was analysed using Graph Pad Prism.
(§4) MFI data was normalized for each antibody, where 0% is defined as the lowest value and 100% is the highest value in the dose titration for each antibody.

[5] = biological target: T4, cynomolgus CD137 on transfected CHO …; assay: flow cytometry, CHO-cyCD137; 95% CI of EC50
Method: as §3, §4

[6] = biological target: T5, human CD137 on transfected CHO cells (human, UniProt Q07011 24-186; P25942 194-277, limits assumed); assay: flow cytometry, CHO-huCD137; 95% CI of EC50
T5 construct: extracellular domain;domain: transmembrane and intracellular part; also called CHO-huCD137; CHOhCD137
T5 sequence (Q07011 other isoform, or with tags, fused parts or gaps limits assumed): as the sequence (P25942 other isoform, or with tags, fused parts or gaps) above, with L4P, S19N, K50R, I66T, S67P, Y69F, E75G, A149V counted along it
Method: as §3, §4

[7] = biological target: T6, human/mouse CD137 chimera 1550; assay: flow cytometry, 293-F cells with CD137 chimera
T6 construct: on transfected FreeStyle 293-F cells
Method: (§5) The ability of each antibody to bind to a panel of human/mouse CD137 chimeras expressed on the surface of transfected cells was analyzed by flow cytometry.
(§6) The chimeras were designed by exchanging domains or modules of the human CD137 with the corresponding mouse domain (FIG. 7). Genes of CD137 human/mouse chimeras were synthesized (GenScript) and constructs cloned into pcDNA3.1 vector (Invitrogen) and transiently transfected into FreeStyle 293-F cells (Invitrogen). The transfected cells were incubated with CD137 antibodies and control antibodies, followed by incubation with anti-human IgG-PE (Jackson Immunoresearch) for detection and analyzed with FACS Verse (BD Biosciences). Binding to the different chimeric constructs was calculated as relative MFI compared to the binding of the isotype control, followed by normalization to the full-length human CD137 construct to minimize the effect of affinity differences between individual antibodies.

[8] = biological target: T7, human/mouse CD137 chimera 1551; assay: flow cytometry, 293-F cells with CD137 chimera
T7 construct: on transfected FreeStyle 293-F cells
Method: as §5, §6

[9] = biological target: T8, human/mouse CD137 chimera 1552; assay: flow cytometry, 293-F cells with CD137 chimera
T8 construct: on transfected FreeStyle 293-F cells
Method: as §5, §6

[10] = biological target: T9, human/mouse CD137 chimera 1553; assay: flow cytometry, 293-F cells with CD137 chimera
T9 construct: on transfected FreeStyle 293-F cells
Method: as §5, §6

[11] = biological target: T10, human/mouse CD137 chimera 1554; assay: flow cytometry, 293-F cells with CD137 chimera
T10 construct: on transfected FreeStyle 293-F cells
Method: as §5, §6

[12] = biological target: T11, human/mouse CD137 chimera 1555; assay: flow cytometry, 293-F cells with CD137 chimera
T11 construct: on transfected FreeStyle 293-F cells
Method: as §5, §6

[13] = biological target: Human CD137 (R&D systems) (human, UniProt Q07011 24-186, limits assumed); assay: SPR Biacore, amine-coupled CD137, mAb injected (bivalent)
Chain of Human CD137 (R&D systems) (Q07011 24-186 limits assumed): as the sequence (Q07011 24-186 limits assumed) above
Method: Human CD137 (R&D systems) was immobilized to the Biacore™ sensor chip, CMS, using conventional amine coupling. The tested antibody and control (serially diluted 1/2 10-0.63 nM) were analyzed for binding in HBS-P (GE, #BR-1003-68) at a flow rate of […]. The association was followed for 5 minutes and the dissociation for 15 minutes. Regeneration was performed twice using 10 mM Glycine pH 1.7 for 30 seconds. The kinetic parameters and the affinity constants were calculated using 1:1 Langmuir model.

biotinylated CD137 [14] = biological target: T12, biotinylated CD137 (UniProt Q07011 24-186, limits assumed, biotinylated); assay: SPR MASS-1, biotinylated antigen on streptavidin chip, parental mAb
T12 sequence (Q07011 24-186 limits assumed): as above

[15] = biological target: T13, full-length human CD137 construct 1030 (human, UniProt Q07011 24-255); assay: flow cytometry, 293-F cells with full-length CD137 (reference of the normalization)
T13 construct: whole, on cells; on transfected FreeStyle 293-F cells; also called Full-length CD137
T13 sequence (Q07011 24-255): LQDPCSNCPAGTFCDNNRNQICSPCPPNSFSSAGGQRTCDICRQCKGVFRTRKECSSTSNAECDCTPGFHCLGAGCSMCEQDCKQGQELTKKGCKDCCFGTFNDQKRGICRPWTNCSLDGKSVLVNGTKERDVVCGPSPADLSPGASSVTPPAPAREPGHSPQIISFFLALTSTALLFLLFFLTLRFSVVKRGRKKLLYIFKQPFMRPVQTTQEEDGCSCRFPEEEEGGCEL
Method: as §5, §6

biotinylated CD137 [16] = biological target: T12, biotinylated CD137; assay: SPR MASS-1, biotinylated antigen on streptavidin chip, parental mAb (same value as printed at r8c7, repeated in the row of 1618-1210)
[17] = biological target: T3, recombinant human CD137-Fc (R&D #838-4B); assay: ELISA, coated CD137-Fc; remark: listed apart in the source
Method: as §2

[18] = biological target: T3, recombinant human CD137-Fc (R&D #838-4B); assay: ELISA, coated CD137 (R&D #838-4B)
[19] = biological target: T1, CD40-Fc (Ancell #504-820); assay: ELISA, coated CD40-Fc; coated CD40-Fc
Method: as §1

[20] = biological target: T6, human/mouse CD137 chimera 1550; assay: flow cytometry, 293-F cells with CD137 chimera; Exp 1
Method: as §5, §6

[21] = biological target: T7, human/mouse CD137 chimera 1551; assay: as above
Method: as §5, §6

[22] = biological target: T8, human/mouse CD137 chimera 1552; assay: as above
Method: as §5, §6

[23] = biological target: T9, human/mouse CD137 chimera 1553; assay: as above
Method: as §5, §6

[24] = biological target: T10, human/mouse CD137 chimera 1554; assay: as above
Method: as §5, §6

[25] = biological target: T11, human/mouse CD137 chimera 1555; assay: as above
Method: as §5, §6

[26] = biological target: T6, human/mouse CD137 chimera 1550; assay: flow cytometry, 293-F cells with CD137 chimera; Exp 2
Method: as §5, §6

[27] = biological target: T7, human/mouse CD137 chimera 1551; assay: as above
Method: as §5, §6

[28] = biological target: T8, human/mouse CD137 chimera 1552; assay: as above
Method: as §5, §6

[29] = biological target: T9, human/mouse CD137 chimera 1553; assay: as above
Method: as §5, §6

[30] = biological target: T10, human/mouse CD137 chimera 1554; assay: as above
Method: as §5, §6

[31] = biological target: T11, human/mouse CD137 chimera 1555; assay: as above
Method: as §5, §6

T1 sequence (P25942 21-193 limits assumed): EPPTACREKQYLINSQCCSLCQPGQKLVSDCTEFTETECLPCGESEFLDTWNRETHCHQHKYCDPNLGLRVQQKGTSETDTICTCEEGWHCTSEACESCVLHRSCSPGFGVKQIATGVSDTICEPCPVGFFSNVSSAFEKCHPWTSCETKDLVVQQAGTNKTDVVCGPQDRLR

binding result [1]: no binding (tested: 10 µg/ml)
binding result [2]: no binding (tested: 10 µg/ml)
EC50 [3]: 0.35 nM
Ratio, cyno:human [4]: 0.77
EC50 [5]: 0.086 to 0.15 µg/mL
EC50 [6]: 0.11 to 0.19 µg/mL
MFI/isotype control normalized to full-length human CD137 [7]: 0.11
MFI/isotype control normalized to full-length human CD137 [8]: 0.67
MFI/isotype control normalized to full-length human CD137 [9]: 1.2
MFI/isotype control normalized to full-length human CD137 [10]: 1.24
MFI/isotype control normalized to full-length human CD137 [11]: 1.01
MFI/isotype control normalized to full-length human CD137 [12]: 0.12
Kd [13]: 0.107 nM
koff [13]: 0.00011 s⁻¹
kon [13]: 1.02e+06 M⁻¹ s⁻¹
Kd (biotinylated CD137 [14]): 0.156 nM
MFI/isotype control normalized to full-length human CD137 [15]: 1
Kd (biotinylated CD137 [16]): 0.156 nM
B1: 1618/1619 (antibody, V domains shown)
VH: EVQLLESGGGLVQPGGSLRLSCAASGFTFSYGSMYWVRQAPGKGLEWVSSISSGSGSTYYADSVKGRFTISRDNSKNTLYLQMNSLRAEDTAVYYCARSSYYGSYYSIDYWGQGTLVTVSS
VL: DIQMTQSPSSLSASVGDRVTITCRASQSISSYLNWYQQKPGKAPKLLIYAASSLQSGVPSRFSGSGSGTDFTLTISSLQPEDFATYYCQQYYDNLPTFGQGTKLEIK

EC50 [1]: > 10 µg/mL
EC50 [17]: ~0.06 µg/mL
EC50 [3]: 0.41 nM
EC50 [18]: 0.4 nM
EC50 [19]: > 40 nM
Ratio, cyno:human [4]: 0.67
EC50 [5]: 0.11 to 0.17 µg/mL
EC50 [6]: 0.16 to 0.27 µg/mL
MFI/isotype control normalized to full-length human CD137 [7]: 0.05
MFI/isotype control normalized to full-length human CD137 [8]: 0.05
MFI/isotype control normalized to full-length human CD137 [9]: 0.06
MFI/isotype control normalized to full-length human CD137 [10]: 0.65
MFI/isotype control normalized to full-length human CD137 [11]: 0.51
MFI/isotype control normalized to full-length human CD137 [12]: 0.26
Kd [13]: 0.976 nM
koff [13]: 0.00066 s⁻¹
kon [13]: 676000 M⁻¹ s⁻¹
MFI/isotype control normalized to full-length human CD137 [15]: 1
B2: 1202/1203 (antibody, V domains shown)
VH: EVQLLESGGGLVQPGGSLRLSCAASGFTFYGSSMSWVRQAPGKGLEWVSSIYYGSSGTYYADSVKGRFTISRDNSKNTLYLQMNSLRAEDTAVYYCARSYYGYFDYWGQGTLVTVSS
VL: DIQMTQSPSSLSASVGDRVTITCRASQSISSYLNWYQQKPGKAPKLLIYAASSLQSGVPSRFSGSGSGTDFTLTISSLQPEDFATYYCQQYYTVVPFTFGQGTKLEIK

binding result [1]: no binding (tested: 10 µg/ml)
binding result [2]: no binding (tested: 10 µg/ml)
MFI/isotype control normalized to full-length human CD137 [20]: 0.06
MFI/isotype control normalized to full-length human CD137 [21]: 0.07
MFI/isotype control normalized to full-length human CD137 [22]: 0.32
MFI/isotype control normalized to full-length human CD137 [23]: 0.41
MFI/isotype control normalized to full-length human CD137 [24]: 0.26
MFI/isotype control normalized to full-length human CD137 [25]: 0.3
MFI/isotype control normalized to full-length human CD137 [26]: 0.14
MFI/isotype control normalized to full-length human CD137 [27]: 0.15
MFI/isotype control normalized to full-length human CD137 [28]: 0.13
MFI/isotype control normalized to full-length human CD137 [29]: 0.15
MFI/isotype control normalized to full-length human CD137 [30]: 0.15
MFI/isotype control normalized to full-length human CD137 [31]: 0.45
B3: 1214/1215 (antibody, V domains shown)
VH: EVQLLESGGGLVQPGGSLRLSCAASGFTFSSYAMSWVRQAPGKGLEWVSSIGSGGGYTGYADSVKGRFTISRDNSKNTLYLQMNSLRAEDTAVYYCARVGHPFDYWGQGTLVTVSS
VL: DIQMTQSPSSLSASVGDRVTITCRASQSISSYLNWYQQKPGKAPKLLIYAASSLQSGVPSRFSGSGSGTDFTLTISSLQPEDFATYYCQQDAYPHTFGQGTKLEIK
